Test results as given in US20250218531A1 (ABSCI, published 2025).
Positions count from the first letter of the chain named. Where “and” joins values, the source holds several entries; their conditions need not be identical. Identical values can stand only once.

B1: Trastuzumab HCDR3 variant ARYYYGYGGYYFDY (Fab, V domains shown)
VH: EVQLVESGGGLVQPGGSLRLSCAASGFNIKDTYIHWVRQAPGKGLEWVARIYPTNGYTRYADSVKGRFTISADTSKNTAYLQMNSLRAEDTAVYYCARYYYGYGGYYFDYWGQGTLVTVSS
VL: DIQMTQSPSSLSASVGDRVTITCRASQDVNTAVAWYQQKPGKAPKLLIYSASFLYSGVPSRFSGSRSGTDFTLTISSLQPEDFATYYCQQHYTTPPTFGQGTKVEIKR
B2: Trastuzumab HCDR3 variant ARYGYAPGFYYMDV (Fab, V domains shown)
VH: B1 VH with Y100G, G102A, Y103P, G105F, F108M, Y110V
VL: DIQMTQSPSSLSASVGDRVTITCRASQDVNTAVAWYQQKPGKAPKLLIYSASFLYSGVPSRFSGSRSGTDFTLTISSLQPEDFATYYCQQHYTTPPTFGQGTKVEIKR
B3: Trastuzumab HCDR3 variant TRYYDGAGPYYMDY (Fab, V domains shown)
VH: B1 VH with A97T, Y101D, Y103A, G105P, F108M
VL: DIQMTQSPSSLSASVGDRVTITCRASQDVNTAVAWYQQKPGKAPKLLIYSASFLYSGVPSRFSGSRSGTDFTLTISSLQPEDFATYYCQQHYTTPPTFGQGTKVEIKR
B4: Trastuzumab HCDR3 variant ARYYGYYYAFDY (Fab, V domains shown)
VH: EVQLVESGGGLVQPGGSLRLSCAASGFNIKDTYIHWVRQAPGKGLEWVARIYPTNGYTRYADSVKGRFTISADTSKNTAYLQMNSLRAEDTAVYYCARYYGYYYAFDYWGQGTLVTVSS
VL: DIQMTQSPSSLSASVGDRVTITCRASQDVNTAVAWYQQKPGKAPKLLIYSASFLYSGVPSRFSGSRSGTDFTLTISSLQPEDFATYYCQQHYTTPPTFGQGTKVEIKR
B5: Trastuzumab HCDR3 variant AKYAFGGWSYSP (Fab, V domains shown)
VH: B4 VH with R98K, Y100A, G101F, Y102G, Y103G, Y104W, A105S, F106Y, D107S, Y108P
VL: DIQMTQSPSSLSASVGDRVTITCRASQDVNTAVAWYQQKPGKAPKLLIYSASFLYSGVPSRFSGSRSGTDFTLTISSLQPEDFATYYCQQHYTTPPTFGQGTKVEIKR
B6: Trastuzumab HCDR3 variant AAYWYGVYVFRY (Fab, V domains shown)
VH: B4 VH with R98A, Y100W, G101Y, Y102G, Y103V, A105V, D107R
VL: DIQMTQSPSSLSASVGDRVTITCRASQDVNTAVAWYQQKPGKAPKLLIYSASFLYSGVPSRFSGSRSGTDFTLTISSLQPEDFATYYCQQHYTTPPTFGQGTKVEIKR
B7: Trastuzumab HCDR3 variant AASADFMYGVIR (Fab, V domains shown)
VH: B4 VH with R98A, Y99S, Y100A, G101D, Y102F, Y103M, A105G, F106V, D107I, Y108R
VL: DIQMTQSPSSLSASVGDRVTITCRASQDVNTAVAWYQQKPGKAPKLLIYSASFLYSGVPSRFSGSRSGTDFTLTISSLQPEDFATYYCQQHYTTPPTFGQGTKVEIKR
B8: Trastuzumab HCDR3 variant AGYWYGSYSFDY (Fab, V domains shown)
VH: B4 VH with R98G, Y100W, G101Y, Y102G, Y103S, A105S
VL: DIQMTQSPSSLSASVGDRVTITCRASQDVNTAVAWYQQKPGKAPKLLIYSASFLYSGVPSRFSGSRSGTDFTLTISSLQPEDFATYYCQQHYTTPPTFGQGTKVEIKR
B9: Trastuzumab HCDR3 variant AKYGISDYGFDH (Fab, V domains shown)
VH: B4 VH with R98K, Y100G, G101I, Y102S, Y103D, A105G, Y108H
VL: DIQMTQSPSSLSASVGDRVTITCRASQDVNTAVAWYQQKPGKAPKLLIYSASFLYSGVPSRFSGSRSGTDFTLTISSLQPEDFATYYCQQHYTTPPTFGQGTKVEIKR
B10: Trastuzumab HCDR3 variant AANAAIFAAWGA (Fab, V domains shown)
VH: B4 VH with R98A, Y99N, Y100A, G101A, Y102I, Y103F, Y104A, F106W, D107G, Y108A
VL: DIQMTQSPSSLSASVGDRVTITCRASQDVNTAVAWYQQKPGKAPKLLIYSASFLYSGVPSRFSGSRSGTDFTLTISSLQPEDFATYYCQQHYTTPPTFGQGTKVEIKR
B11: Trastuzumab HCDR3 variant AAYGPQGYAFAV (Fab, V domains shown)
VH: B4 VH with R98A, Y100G, G101P, Y102Q, Y103G, D107A, Y108V
VL: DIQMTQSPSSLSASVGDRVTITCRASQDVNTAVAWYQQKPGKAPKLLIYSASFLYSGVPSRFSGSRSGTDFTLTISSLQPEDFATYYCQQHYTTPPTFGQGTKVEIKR
B12: Trastuzumab HCDR3 variant ARYGGGYNMDY (Fab, V domains shown)
VH: EVQLVESGGGLVQPGGSLRLSCAASGFNIKDTYIHWVRQAPGKGLEWVARIYPTNGYTRYADSVKGRFTISADTSKNTAYLQMNSLRAEDTAVYYCARYGGGYNMDYWGQGTLVTVSS
VL: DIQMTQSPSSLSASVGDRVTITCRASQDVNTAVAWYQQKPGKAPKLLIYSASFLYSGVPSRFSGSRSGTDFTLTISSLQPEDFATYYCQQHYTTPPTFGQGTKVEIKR
B13: Trastuzumab HCDR3 variant TRYGLTFDMDY (Fab, V domains shown)
VH: B12 VH with A97T, G101L, G102T, Y103F, N104D
VL: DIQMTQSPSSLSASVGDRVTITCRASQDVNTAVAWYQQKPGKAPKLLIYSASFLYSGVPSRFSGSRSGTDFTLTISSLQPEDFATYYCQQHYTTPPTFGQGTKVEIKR
B14: Trastuzumab HCDR3 variant APYGPGYWYGV (Fab, V domains shown)
VH: B12 VH with R98P, G101P, N104W, M105Y, D106G, Y107V
VL: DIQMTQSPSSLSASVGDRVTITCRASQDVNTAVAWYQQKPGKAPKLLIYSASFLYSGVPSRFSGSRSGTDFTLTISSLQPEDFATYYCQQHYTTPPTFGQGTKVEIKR
B15: Trastuzumab HCDR3 variant ARWEDYYYMDY (Fab, V domains shown)
VH: B12 VH with Y99W, G100E, G101D, G102Y, N104Y
VL: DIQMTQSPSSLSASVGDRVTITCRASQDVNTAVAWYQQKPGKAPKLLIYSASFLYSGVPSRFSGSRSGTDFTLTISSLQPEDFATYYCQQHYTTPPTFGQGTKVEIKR
B16: Trastuzumab HCDR3 variant ARWYVSYDYDV (Fab, V domains shown)
VH: B12 VH with Y99W, G100Y, G101V, G102S, N104D, M105Y, Y107V
VL: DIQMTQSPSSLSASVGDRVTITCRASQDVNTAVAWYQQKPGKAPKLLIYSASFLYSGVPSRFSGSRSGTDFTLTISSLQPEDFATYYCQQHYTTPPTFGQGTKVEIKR
B17: Trastuzumab HCDR3 variant VRYGNSYYYDY (Fab, V domains shown)
VH: B12 VH with A97V, G101N, G102S, N104Y, M105Y
VL: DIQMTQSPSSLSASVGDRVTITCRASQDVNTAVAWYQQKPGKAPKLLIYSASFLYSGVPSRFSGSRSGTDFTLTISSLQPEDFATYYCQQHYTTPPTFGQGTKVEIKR
B18: Trastuzumab HCDR3 variant TRWGGYYYFDY (Fab, V domains shown)
VH: B12 VH with A97T, Y99W, G102Y, N104Y, M105F
VL: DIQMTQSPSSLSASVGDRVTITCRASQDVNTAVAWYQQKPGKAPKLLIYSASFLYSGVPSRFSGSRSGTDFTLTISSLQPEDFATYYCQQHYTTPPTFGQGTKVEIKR
B19: Trastuzumab HCDR3 variant VRFYYDYYFDY (Fab, V domains shown)
VH: B12 VH with A97V, Y99F, G100Y, G101Y, G102D, N104Y, M105F
VL: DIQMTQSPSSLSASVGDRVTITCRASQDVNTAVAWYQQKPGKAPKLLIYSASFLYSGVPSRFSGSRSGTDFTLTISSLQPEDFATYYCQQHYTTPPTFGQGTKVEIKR
B20: Trastuzumab HCDR3 variant ARYWYGGYYYFDY (Fab, V domains shown)
VH: EVQLVESGGGLVQPGGSLRLSCAASGFNIKDTYIHWVRQAPGKGLEWVARIYPTNGYTRYADSVKGRFTISADTSKNTAYLQMNSLRAEDTAVYYCARYWYGGYYYFDYWGQGTLVTVSS
VL: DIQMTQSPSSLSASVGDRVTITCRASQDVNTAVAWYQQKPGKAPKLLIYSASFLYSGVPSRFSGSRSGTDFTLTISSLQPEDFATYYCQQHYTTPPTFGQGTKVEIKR
B21: Trastuzumab HCDR3 variant ARYYSYGQYAFDP (Fab, V domains shown)
VH: B20 VH with W100Y, Y101S, G102Y, Y104Q, Y106A, Y109P
VL: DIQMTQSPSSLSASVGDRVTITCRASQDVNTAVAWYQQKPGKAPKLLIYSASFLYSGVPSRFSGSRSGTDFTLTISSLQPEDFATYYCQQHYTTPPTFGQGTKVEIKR
B22: Trastuzumab HCDR3 variant ARYYGYGYYYFHY (Fab, V domains shown)
VH: B20 VH with W100Y, Y101G, G102Y, D108H
VL: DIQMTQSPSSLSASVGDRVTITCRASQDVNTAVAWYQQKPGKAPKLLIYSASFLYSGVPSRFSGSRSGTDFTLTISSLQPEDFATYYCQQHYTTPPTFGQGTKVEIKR
B23: Trastuzumab HCDR3 variant VRYYGDGGYYFDY (Fab, V domains shown)
VH: B20 VH with A97V, W100Y, Y101G, G102D, Y104G
VL: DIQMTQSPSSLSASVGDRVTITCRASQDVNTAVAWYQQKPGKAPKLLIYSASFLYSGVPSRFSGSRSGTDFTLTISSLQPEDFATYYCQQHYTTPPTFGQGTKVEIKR
B24: Trastuzumab HCDR3 variant VRYGFYGYYYFDY (Fab, V domains shown)
VH: B20 VH with A97V, W100G, Y101F, G102Y
VL: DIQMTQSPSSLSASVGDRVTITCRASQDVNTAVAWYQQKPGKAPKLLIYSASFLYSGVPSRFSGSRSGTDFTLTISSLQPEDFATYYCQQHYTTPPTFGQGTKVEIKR
B25: Trastuzumab HCDR3 variant TSIFSGGYYGLDS (Fab, V domains shown)
VH: B20 VH with A97T, R98S, Y99I, W100F, Y101S, Y106G, F107L, Y109S
VL: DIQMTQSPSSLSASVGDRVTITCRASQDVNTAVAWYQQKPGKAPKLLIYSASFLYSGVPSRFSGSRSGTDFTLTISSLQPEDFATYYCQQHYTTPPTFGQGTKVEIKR

Tests used:
[1] = molecular target: T1, HER2 (human epidermal growth factor receptor 2) (human, UniProt P04626 23-629); assay: SPR
T1 construct: also called Antigen: HER2

[2] = molecular target: human epidermal growth factor receptor 2 (HER2) extracellular domain (human, UniProt P04626 23-629); assay: SPR

Binder	Kd [1]	log(KD (M)) [1]	Kd [2] [nM]	log(KD (M)) [2]
B1	15 nM	-7.82	–	–
B2	9.72 nM	-8.01	–	–
B3	23.7 nM and 23.6 nM	-7.63	–	–
B4	–	–	46.3	-7.33 log(M)
B5	–	–	37.7	-7.42 log(M)
B6	–	–	113	-6.95 log(M)
B7	–	–	39.6	-7.4 log(M)
B8	–	–	35.4	-7.45 log(M)
B9	–	–	207	-6.68 log(M)
B10	–	–	43.1	-7.37 log(M)
B11	–	–	33.8	-7.47 log(M)
B12	14.3 nM	-7.84	–	–
B13	13.9 nM	-7.86	–	–
B14	9.15 nM	-8.04	–	–
B15	21.8 nM	-7.66	–	–
B16	17.6 nM	-7.75	–	–
B17	26.9 nM	-7.57	–	–
B18	9.79 nM	-8.01	–	–
B19	26.9 nM	-7.57	–	–
B20	19.7 nM	-7.71	–	–
B21	19.4 nM	-7.71	–	–
B22	20.2 nM	-7.7	–	–
B23	5.35 nM	-8.27	–	–
B24	16.5 nM	-7.78	–	–
B25	8.57 nM	-8.07	–	–
